Results published in the Immune Epitope Database (IEDB).
pIC50: −log10 of the molar value.

How the values were obtained:
HLA-A*02:03 = test: IEDB peptide-MHC binding, purified MHC/competitive/radioactivity; ≥ and ≤ were set here for values at or beyond the usual limits of such assays
HLA-A*02:02 [1] = test: as above
HLA-A*02:06 [2] = test: IEDB peptide-MHC binding, cellular MHC/competitive/fluorescence; ≥ and ≤ were set here for values at or beyond the usual limits of such assays
HLA-A*68:02 [3] = test: as above
HLA-A*02:01 [4] = test: as above
HLA-A*02:06 [5] = test: IEDB peptide-MHC binding, purified MHC/competitive/radioactivity; ≥ and ≤ were set here for values at or beyond the usual limits of such assays; details: source organism: Vaccinia virus WR
HLA-A*68:02 [6] = test: as above; details: source organism: Vaccinia virus WR
HLA-A*02:01 [7] = test: as above; details: source organism: Vaccinia virus WR
HLA-A*02:02 [8] = test: IEDB peptide-MHC binding, cellular MHC/competitive/fluorescence; ≥ and ≤ were set here for values at or beyond the usual limits of such assays; details: source organism: Vaccinia virus WR
[9] = source organism: Vaccinia virus WR
[10] = source organism: Influenza A virus
[11] = source organism: Mammarenavirus guanaritoense

Sequence	pIC50 (HLA-A*02:03; [9])	pIC50 (HLA-A*02:02 [1]; [9])	pIC50 (HLA-A*02:06 [2]; [9])	pIC50 (HLA-A*68:02 [3]; [9])	pIC50 (HLA-A*02:01 [4]; [9])	pIC50 (HLA-A*02:01 [7])	also measured
TLLNETAKVI	5.67	5.54	5.07	5.20	4.77		
FTDCRTIDA	5.57					5.42	pIC50 (HLA-A*02:06 [5]): 5.57; pIC50 (HLA-A*68:02 [6]): 5.47; pIC50 (HLA-A*02:02 [8]): 4.96
RTLFQQMRDVL							pIC50 (HLA-A*02:03; [10]): 5.42; pIC50 (HLA-A*02:02 [1]; [10]): 5.72; pIC50 (HLA-A*02:06 [2]; [10]): ≤ 4.15; pIC50 (HLA-A*68:02 [3]; [10]): ≤ 4.15; pIC50 (HLA-A*02:01 [4]; [10]): 4.86
HLRASTTENA	7.42	6.31	≤ 4.15	4.44	4.70		
NIYRLFTRCA	6.86					6.09	pIC50 (HLA-A*02:06 [5]): 7.64; pIC50 (HLA-A*68:02 [6]): 6.60; pIC50 (HLA-A*02:02 [8]): 5.00
EISSNDNAKI	6.71					6.29	pIC50 (HLA-A*02:06 [5]): 6.79; pIC50 (HLA-A*68:02 [6]): 6.91; pIC50 (HLA-A*02:02 [8]): 4.95
PASKKESVI	5.75	5.87	4.99	≤ 4.15	4.73		
GIKNLKSLL	5.58	5.67	4.21	≤ 4.15	4.26		
SVQLSNNKYV	6.09	5.91	5.05	4.95	4.26		
FMNDLQVSR							pIC50 (HLA-A*02:03; [11]): 6.04; pIC50 (HLA-A*02:02 [1]; [11]): 6.60; pIC50 (HLA-A*02:06 [2]; [11]): 4.47; pIC50 (HLA-A*68:02 [3]; [11]): 4.58; pIC50 (HLA-A*02:01 [4]; [11]): 5.20
RLRQDTEDIV	6.55	6.87	5.13	4.45	5.23		
DTIAHINTLI	6.94	5.94	4.20	≤ 4.15	4.99		
TLNEYKQLYT	6.11	6.84	≤ 4.15	≤ 4.15	4.94		
IVAAVIIMA	5.58					5.74	pIC50 (HLA-A*02:06 [5]): 5.45; pIC50 (HLA-A*68:02 [6]): 7.62; pIC50 (HLA-A*02:02 [8]): 4.98
EILSNTTKTL	7.00	6.46	≤ 4.15	4.82	4.99		
VMPEKRNVVV	6.52	5.45	4.56	5.17		5.41	
